# Results reported in patent US20170044545, “APTAMER FOR BONDING TO AUTOTAXIN AND INHIBITING BIOLOGICAL ACTIVITY OF AUTOTAXIN, AND USE FOR SAME” (RIBOMIC INC., published 2017).
# Tests used:
# Autotaxin (ENPP2, NPP2) [1] = target: T1, Autotaxin (ENPP2, NPP2) (Homo sapiens, UniProt Q13822 Q13822:36-863); test: inhibition
# Autotaxin (ENPP2, NPP2) [2] = target: T1, Autotaxin (ENPP2, NPP2); test: inhibition; pNP-TMP 1 mM, autotaxin 0.3 nM, 37 C 24 h, solution A
# Autotaxin (ENPP2, NPP2) [3] = target: T1, Autotaxin (ENPP2, NPP2); test: inhibition; NPP2 assay, pNP-TMP substrate, solution A (Ca, Mg), 37 C
# Autotaxin (ENPP2, NPP2) [4] = target: T1, Autotaxin (ENPP2, NPP2); test: SPR
# Autotaxin (ENPP2, NPP2) [5] = target: T1, Autotaxin (ENPP2, NPP2); test: inhibition; text prints 3' CCUGGA, listing ccucgga
# FGF2 = FGF2 (UniProt P09038 P09038:135-288); test: SPR; FGF2 immobilized about 1100 RU; specificity control; conditions: tags: PeproTech
# Protocol: Whether the nucleic acids of SEQ ID NOs: 8 and 9 bind to autotaxin was evaluated by the surface plasmon resonance method. For the measurement, Biacore T100 manufactured by GE Healthcare was used, and the measurement was performed by the method shown below. About 2700 RU autotaxin was immobilized on a sensorchip surface of CM4 chip by using an amino coupling kit. The flow rate was 20 μL/min, and nucleic acids (20 μL) prepared to 0.3 μM were injected as an analyte. As a running buffer, solution A was used. In Table 1, nucleic acids showing a binding amount of not more than 10% of that of the aptamer of SEQ ID NO: 4 were considered not binding and marked with (−), and ones not less than that were considered binding and marked with (+).
# Whether the aptamer shown in SEQ ID NO: 16(23) has a binding activity to FGF2 (PeproTech) was confirmed by the surface plasmon resonance method. Autotaxin was immobilized on a flow cell 2 and FGF2 was immobilized on a flow cell 3 (about 1100 RU), and the aptamer was injected. The rest was performed similarly to Example 2.
# Autotaxin (ENPP2, NPP2) [6] = target: T1, Autotaxin (ENPP2, NPP2); test: SPR; not more than 10% of SEQ 4
# Autotaxin (ENPP2, NPP2) [7] = target: T1, Autotaxin (ENPP2, NPP2); test: inhibition; listing sequence lacks U7 printed in text
# FGF2, sequence (P09038 135-288, one chain of several): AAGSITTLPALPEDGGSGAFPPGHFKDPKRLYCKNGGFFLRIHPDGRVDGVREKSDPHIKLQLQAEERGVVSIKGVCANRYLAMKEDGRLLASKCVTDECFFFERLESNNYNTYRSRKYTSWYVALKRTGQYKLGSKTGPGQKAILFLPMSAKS
Binder,"IC50 (Autotaxin (ENPP2, NPP2) [1])","IC50 (Autotaxin (ENPP2, NPP2) [3])",further results
"UCUGAGGGAAACAGGUUUUGCUCCUCGGA (mixed, as 16(4) with dC21) [SEQ 16(15)]",77 nM,,
"SEQ 4 aptamer (ssRNA, 2'-F pyrimidines, 2'-OH purines) RNA: GGGACCGCACUCUAAACGCUCUGAGGGAAACAGGUUUUGCUCCUCGGAGCGUGGACGAAGUGAGACGUAUCCG",,,"IC50 (Autotaxin (ENPP2, NPP2) [2]): 7 nM"
"UCUGAGGGAAACAGGUUUUGCUCCUCGGA (mixed, dT1; 2'-deoxy G8,G14,G15,C23,C26; 2'-OMe G4,A5,G6,G7,A9,A11,A13,G20,C24,U25,G27,G28,A29; 2'-OH A10 with PS; other pyrimidines 2'-F; 5' and 3' idT) [SEQ 16(56)]",,0.2 nM,
"UCUGAGGGAAACAGGUUUUGCUCCUCGGA (mixed, dT1; 2'-deoxy G8,G14,G15,C23,C26; 2'-OMe G4,A5,G6,G7,A9,A11,A13,U16,G20,G27,G28,A29; 2'-OH A10 with PS; other pyrimidines 2'-F; 5' and 3' idT) [SEQ 16(59)]",,16 nM,
"UCUGAGGGAAACAGGUUUUGCUCCUCGGA (mixed, as 16(21) with dT25) [SEQ 16(27)]",3.2 nM,,
"UCUGAGGGAAACAGGUUUUGCUCCUCGGA (mixed, dT1; 2'-deoxy G8,G14,G15,C23,C26; 2'-OMe G4,A5,G6,G7,A9,A11,A13,G20,G27,G28,A29; 2'-OH A10 with PS; other pyrimidines 2'-F; 5' 80 kDa PEG (GL4-800GS2)-ssH linker; 3' idT) [SEQ 16(64)]",,1.3 nM,
"UCUGAGGGAACAGGUUUUGCUCCUCGGA (ssRNA, 2'-F pyrimidines, 2'-OH purines) [SEQ 37]",720 nM,,"binding result (Autotaxin (ENPP2, NPP2) [4]): no binding"
"UCUGAGGGAAACAGGUUUUGCUCCUCGGA (mixed, as 16(21) with dC26) [SEQ 16(26)]",2.1 nM,,
"UCUGAGGGAAACAGGUUUUGCUCCUCGGA (mixed, dT1; 2'-deoxy G8,G14,G15; 2'-OMe G4,A5,G6,G7,A9,A11,A13,G20,G27,G28,A29; 2'-OH A10; other pyrimidines 2'-F; 5' 80 kDa PEG (GL2-800GS2)-ssH linker; 3' idT) [SEQ 16(52)]",,9.4 nM,
"UCUGAGGGAAACAGGUUUUGCUCCUCGGA (mixed, as 16(21) with dT1 dC2 dT3) [SEQ 16(25)]",2.3 nM,,
"UCUGAGGGAAACAGGUUUUGCUCCUCGGA (mixed, as 16(4) with dT17) [SEQ 16(18)]",29 nM,,
"UCUGAGGGAAACAGGUUCUGCUCCUCGGA (ssRNA, 2'-F pyrimidines, 2'-OH purines) [SEQ 46]",,,"IC50 (Autotaxin (ENPP2, NPP2) [5]): 50 nM"
"UCUGAGGGAAACAGGUUUUGCUCCUCGGA (mixed, as 16(21) with PS at A10) [SEQ 16(22)]",0.5 nM,,
"UCUGAGGGAAACAGGUUUUGCUCCUCGGA (mixed, dT1; 2'-deoxy G8,G14,G15,C23,C26; 2'-OMe C2,U3,G4,A5,G6,G7,A9,A11,A13,G20,U22,C24,U25,G27,G28,A29; 2'-OH A10 with PS; other pyrimidines 2'-F; 5' 40 kDa PEG (GL2-400GS2)-ssH linker; 3' idT) [SEQ 16(66)]",,0.7 nM,
"UCUGAGGGAAACAGGUUUUGCUCCUCGGA (mixed, as 16(22) with 5' 40 kDa PEG (GL2-400GS2)-ssH linker instead of 5' idT) [SEQ 16(23)]",1.1 nM,,binding result (FGF2): no binding
"UCUGAGGGAAACAGGUUUUGCUCCUCGGA (mixed, 2'-F all pyrimidines; 2'-OMe G4 A5 G6 G7 A9 A11 A13 G20 G27 G28 A29; 2'-OH A10; dG8 dG14 dG15; 5' and 3' idT) [SEQ 16(21)]",2.2 nM,,
"UCUGAGGGAAACAGGUUUUGCUCCUCGGA (mixed, as 16(21) with dT1 dC2 dT3 dC23 dC24 dC26) [SEQ 16(32)]",1.4 nM,,
"UCUGAGGGAAACAGGUUUUGCUCCUCGGA (mixed, 2'-deoxy G8,G14,G15,C23,C26; 2'-OMe G4,A5,G6,G7,A9,A11,A13,G20,G27,G28,A29; 2'-OH A10; other pyrimidines 2'-F; 5' 80 kDa PEG (GL2-800GS2)-ssH linker; 3' idT) [SEQ 16(50)]",,12 nM,
"UCUGAGGGAAACAGGUUUUGCUCCUCGGA (mixed, as 16(4) with dC12) [SEQ 16(20)]",44 nM,,
"UCUGAGGGAAACAGGUUUUGCUCCUCGGA (mixed, as 16(21) with dC23) [SEQ 16(29)]",3.3 nM,,
"GGGAAACAGGUUUUGCUCC (ssRNA, 2'-F pyrimidines, 2'-OH purines) [SEQ 22]",950 nM,,"binding result (Autotaxin (ENPP2, NPP2) [6]): no binding"
"UCUGAGGGAAACAGGUUUUGCUCCUCGGA (mixed, dT1; 2'-deoxy G8,G14,G15; 2'-OMe G4,A5,G6,G7,A9,A11,A13,G20,G27,G28,A29; 2'-OH A10 with PS; other pyrimidines 2'-F; 5' 80 kDa PEG (GL2-800GS2)-ssH linker; 3' idT) [SEQ 16(53)]",,2.7 nM,
"UCUGAGGGAAACAGGUUUUGCUCCUCGGA (mixed, dT1; 2'-deoxy G8,G14,G15,C23,C26; 2'-OMe G4,A5,G6,G7,A9,A11,A13,U19,G20,G27,G28,A29; 2'-OH A10 with PS; other pyrimidines 2'-F; 5' and 3' idT) [SEQ 16(60)]",,23 nM,

Binder,"IC50 (Autotaxin (ENPP2, NPP2) [1])","IC50 (Autotaxin (ENPP2, NPP2) [3])",further results
"UCUGAGGGAAACAGGUUUUGCUCCUCGGA (mixed, dT1; 2'-deoxy G8,G14,G15,C23,C26; 2'-OMe G4,A5,G6,G7,A9,A11,A13,U18,G20,G27,G28,A29; 2'-OH A10 with PS; other pyrimidines 2'-F; 5' and 3' idT) [SEQ 16(62)]",,23 nM,
"UCUGAGGGAUACAGGUAUUGCUCCUCGGA (ssRNA, 2'-F pyrimidines, 2'-OH purines) [SEQ 27]",,,"binding result (Autotaxin (ENPP2, NPP2) [4]): no binding"
"UCUGAGGGAAACAGGUUUUGCUCCUCGGA (mixed, as 16(4) with dT19) [SEQ 16(16)]",45 nM,,
"UCUGAGGGAAACAGGUUUUGCUCCUCGGA (mixed, as 16(21) with ssH linker instead of 5' idT) [SEQ 16(30)]",4.4 nM,,
"SEQ 9 clone (ssRNA, 2'-F pyrimidines, 2'-OH purines) RNA: GGGUGGCAACAGGACAUGGAACGCGCCCCAACUGCUUGAAACUGGUUUUGCUGAGCAGUGAUGUGAGAUGCGUCUUCGUAC",,,"binding result (Autotaxin (ENPP2, NPP2) [6]): no binding"
"UCUGAGGGAAACAGGUUUUGCUCCUCGGA (mixed, 2'-deoxy G8,G14,G15,C23,C26; 2'-OMe G4,A5,G6,G7,A9,A11,A13,G20,G27,G28,A29; 2'-OH A10 with PS; other pyrimidines 2'-F; 5' 80 kDa PEG (GL2-800GS2)-ssH linker; 3' idT) [SEQ 16(51)]",,2.8 nM,
"UCUGAGGGAAACAGGUUUUGCUCCUCGGA (mixed, as 16(4) with dT18) [SEQ 16(17)]",46 nM,,
"UCUGAGGGAAACAGGUUUGCUCCUCGGA (ssRNA, 2'-F pyrimidines, 2'-OH purines) [SEQ 36]",,,"binding result (Autotaxin (ENPP2, NPP2) [4]): no binding"
"UCUGAGGGAAUCAGGAUUUGCUCCUCGGA (ssRNA, 2'-F pyrimidines, 2'-OH purines) [SEQ 28]",,,"binding result (Autotaxin (ENPP2, NPP2) [4]): no binding"
"UCUGAGGGAAACAGGUUUUGCUCCUCGGA (mixed, as 16(22) with ssH linker instead of 5' idT) [SEQ 16(31)]",0.8 nM,,
"UCUGAGGGAAACAGGUUUUGCUCCUCGGA (mixed, as 16(4) with dG8) [SEQ 16(14)]",6.3 nM,,
"UCUGAGUGAAACAGGUUUUGCUGCUCGGA (ssRNA, 2'-F pyrimidines, 2'-OH purines [2'-F at all C and U; A and G 2'-OH]) [SEQ 48]",,,"IC50 (Autotaxin (ENPP2, NPP2) [7]): 44 nM"
"UCUGAGGGAAACAGGUUUUGCUCCUCGGA (mixed, dT1; 2'-deoxy G8,G14,G15,C23,C26; 2'-OMe G4,A5,G6,G7,A9,A11,A13,G20,G27,G28,A29; 2'-OH A10 with PS; other pyrimidines 2'-F; 5' 40 kDa PEG (GL2-400GS2)-ssH linker; 3' idT) [SEQ 16(63)]",,0.8 nM,
"UCUGAGGGAAGCAGGUUUUGCUCCUCGGA (ssRNA, 2'-F pyrimidines, 2'-OH purines) [SEQ 35]",,,"binding result (Autotaxin (ENPP2, NPP2) [4]): no binding"
"UCUGAGGGAAACAGGUUUUGCUCCUCGGA (mixed, dT1; 2'-deoxy G8,G14,G15,C23,C26; 2'-OMe G4,A5,G6,G7,A9,A11,A13,G20,U22,G27,G28,A29; 2'-OH A10 with PS; other pyrimidines 2'-F; 5' and 3' idT) [SEQ 16(57)]",,0.3 nM,
"UCUGAGGGAAACAGGUUUUGCUCCUCGGA (mixed, dT1; 2'-deoxy G8,G14,G15,C23,C26; 2'-OMe C2,U3,G4,A5,G6,G7,A9,A11,A13,G20,C21,U22,C24,U25,G27,G28,A29; 2'-OH A10 with PS; other pyrimidines 2'-F; 5' 80 kDa PEG (GL2-800GS2)-ssH linker; 3' idT) [SEQ 16(67)]",,0.6 nM,
"UCUGAGGGAAACAGGUUUUGCUCCUCGGA (mixed, as 16(21) with 5' 40 kDa PEG (GL2-400GS2)-ssH linker instead of 5' idT) [SEQ 16(24)]",7.4 nM,,
"UCUGAGGGAAACAGGUUUUGCUCCUCGGA (mixed, dT1; 2'-deoxy G8,G14,G15,C23,C26; 2'-OMe G4,A5,G6,G7,A9,A11,A13,U17,G20,G27,G28,A29; 2'-OH A10 with PS; other pyrimidines 2'-F; 5' and 3' idT) [SEQ 16(61)]",,23 nM,
"GGAAACAGGUUUUGCUC (ssRNA, 2'-F pyrimidines, 2'-OH purines) [SEQ 23]",,,"binding result (Autotaxin (ENPP2, NPP2) [6]): no binding"
"UCUGAGGGAAACAGGUUUUGCUCCUCGGA (mixed, as 16(21) with dC24) [SEQ 16(28)]",2.7 nM,,
"UCUGAGGGAAACAGGUUUUGCUCCUCGGA (mixed, as 16(4) with dT16) [SEQ 16(19)]",51 nM,,
"UCUGAGGGAAACAGGUUUUGCUCCUCGGA (mixed, dT1,dC2,dT3; 2'-deoxy G8,G14,G15,C23,C24,C26; 2'-OMe G4,A5,G6,G7,A9,A11,A13,G20,G27,G28,A29; 2'-OH A10 with PS; other pyrimidines 2'-F; 5' 80 kDa PEG (GL2-800GS2)-ssH linker; 3' idT) [SEQ 16(54)]",,2.3 nM,
"UCUGAGGGAAACAGGUUUUGCUCCUCGGA (mixed, dT1; 2'-deoxy G8,G14,G15,C23,C26; 2'-OMe G4,A5,G6,G7,A9,A11,A13,G20,C21,G27,G28,A29; 2'-OH A10 with PS; other pyrimidines 2'-F; 5' and 3' idT) [SEQ 16(58)]",,0.6 nM,
